Test results reported in patent US20250145711A1 (Janssen / Centocor, published 2025).
Positions count from the first letter of the chain named. Each block holds one binder with its values, some of them ahead of it.

Key:
[1] = target: T1, TRCW5 antigen (CD3δε-Fc-Avi) (biotinylated (site not stated)); assay: ELISA after heat
T1 construct: also called recombinant CD3

[2] = target: T2, CD3 on primary human pan T cells (human, UniProt P07766 23-207); assay: flow cytometry, pan T-cells
T2 construct: on cells it stands in the TCR/CD3 complex; also called Pan T-cells (CD3-positive); endogenous CD3
Method: ELISA assays for binding to recombinant CD3 (TRCW5, SEQ ID NO: 39) were performed as above. Cell binding was performed using primary human T cell and Jurkat cells by flow cytometry. Briefly, E. coli expressed anti CD3 ScFv supernatants, either at room temperature, or 55° C., 60° C. or 65° C. heat treated samples.
Pan T-cells (CD3-positive) and Jurkat-CD3-negative cells were prepared by staining Jurkat-CD3-negative cells with CFSE while keeping pan T-cells unstained. Jurkat-CD3-negative cell suspensions were resuspended at 20 million cells per each 50 mL conical tube. Cells were harvested by centrifugation at 400×g for 5 minutes and resuspended in DPBS followed by washing 2× in DPBS. Cells were stained with 1:25,000 dilution for a final dye concentration of 0.02 uM CFSE (2 uL of staining solution to 50 mL of cell suspension). Cells were incubated for 10 minutes at room temperature and centrifuged for 5 minutes at 400×g. After removal of supernatant, 3 mL of HI-FBS were added to the cell pellet, mixed and centrifuged for 5 min at 400×g. Supernatant was removed and cells were resuspended in BD stain buffer at 2×10\hat{ }6 cells/mL and incubated on ice or 4 C protected from light. Human pan T cells were thawed at 37 C and transferred gently into a conical tube containing 15 mL of warm or RT culture media (RPMI+10% FBS). […] Cells were harvested by centrifugation at 400×g for 5 min and resuspended in culture media (RPMI+10% HI-FBS). Pan T-cells (without staining) were prepared at 2×10\hat{ }6 cells/mL in flow staining buffer. Equal volumes of CFSE stained Jurkat-CD3-negative cells and unstained T-cells (CD3-positive) cells were mixed and plated 50 uL/well into assay plates. 50 uL/well neat bacterial supernatant samples and control sample (CD3W36 ScFv) were added to each well and plates were incubated 1 hr at 4 C or. Cells were harvested by centrifugation at 400×g for 4 min and 150 uL staining buffer were added to all wells, followed by centrifugation at 400×g for 4 min to pellet cells. To each well, 150 uL staining buffer were added followed by centrifugation at 400×g for 4 minutes to pellet cells.

T2 sequence (P07766 23-207 limits assumed): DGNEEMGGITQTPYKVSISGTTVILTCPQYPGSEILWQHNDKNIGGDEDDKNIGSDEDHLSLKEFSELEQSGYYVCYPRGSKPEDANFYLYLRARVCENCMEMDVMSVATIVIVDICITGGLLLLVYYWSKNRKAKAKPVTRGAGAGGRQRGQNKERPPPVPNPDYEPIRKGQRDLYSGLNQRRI
T1 sequence (chain, as listed by the source mutant limits assumed): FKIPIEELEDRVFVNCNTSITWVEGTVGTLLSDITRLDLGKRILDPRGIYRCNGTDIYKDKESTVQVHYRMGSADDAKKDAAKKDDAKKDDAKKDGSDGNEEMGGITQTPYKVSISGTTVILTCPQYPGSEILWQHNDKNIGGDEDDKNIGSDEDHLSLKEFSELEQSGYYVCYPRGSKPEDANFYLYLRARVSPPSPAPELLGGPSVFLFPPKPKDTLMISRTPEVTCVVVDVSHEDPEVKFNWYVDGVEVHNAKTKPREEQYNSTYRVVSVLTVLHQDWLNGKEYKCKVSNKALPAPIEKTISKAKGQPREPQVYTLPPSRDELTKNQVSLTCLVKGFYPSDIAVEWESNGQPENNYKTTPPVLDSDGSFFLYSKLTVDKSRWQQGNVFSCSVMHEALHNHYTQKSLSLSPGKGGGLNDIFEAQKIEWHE

B1: CD3B2035 (scFv)
scFv: QVQLVQSGAEVKKPGSSVKVSCKASGYTFTRSTMHWVKQAPGQGLEWMGYINPSSAYTNYNQKFQGRVTLTADKSTSTAYMELSSLRSEDTAVYYCASPQVHYDYNGFPYWGQGTLVTVSSGGSEGKSSGSGSESKSTGGSEIVLTQSPATLSASPGERVTLSCSASSSVSYMNWYQQKPGQAPRRWIYDSSKLASGVPARFSGSGSGRDYTLTISSLEPEDFAVYYCQQWSRNPPTFGGGTKVEIK
% Retained 55° C. [1]: 110%
% Retained 60° C. [1]: 112%
% Retained 65° C. [1]: 47%
% Binding retained on T-cells, 55° C. [2]: 1.06 fraction
% Binding retained on T-cells, 60° C. [2]: 1.14 fraction
% Binding retained on T-cells, 65° C. [2]: 0.455 fraction
% Binding retained on T-cells, RT [2]: 1 fraction

B3: CD3B2044 (scFv)
scFv: B1 scFv with K38R, M48I, A183S
% Retained 55° C. [1]: 103%
% Retained 60° C. [1]: 102%
% Retained 65° C. [1]: 14%
% Binding retained on T-cells, 55° C. [2]: 0.786 fraction
% Binding retained on T-cells, 60° C. [2]: 1.04 fraction
% Binding retained on T-cells, 65° C. [2]: 0.198 fraction
% Binding retained on T-cells, RT [2]: 1 fraction

B4: CD3B2061 (scFv)
scFv: B1 scFv with M48I, N61A, Q182T
% Retained 55° C. [1]: 116%
% Retained 60° C. [1]: 107%
% Retained 65° C. [1]: 9%

B5: CD3B2037 (scFv)
scFv: B1 scFv with N61A, Q182T, A183S, W187L
% Retained 55° C. [1]: 102%
% Retained 60° C. [1]: 103%
% Retained 65° C. [1]: 23%
% Binding retained on T-cells, 55° C. [2]: 1.07 fraction
% Binding retained on T-cells, 60° C. [2]: 0.986 fraction
% Binding retained on T-cells, 65° C. [2]: 0.061 fraction
% Binding retained on T-cells, RT [2]: 1 fraction

B9: CD3B2076 (scFv)
scFv: B1 scFv with K38R, M48I, N61A, W187L
% Retained 55° C. [1]: 100%
% Retained 60° C. [1]: 82%
% Retained 65° C. [1]: 7%

B10: CD3B2083 (scFv)
scFv: B1 scFv with K38R, N61A, A183S, W187L
% Retained 55° C. [1]: 104%
% Retained 60° C. [1]: 84%
% Retained 65° C. [1]: 4%

B13: CD3B2043 (scFv)
scFv: B1 scFv with K38R, M48I, Q182T, W187L
% Retained 55° C. [1]: 100%
% Retained 60° C. [1]: 88%
% Retained 65° C. [1]: 4%
% Binding retained on T-cells, 55° C. [2]: 0.991 fraction
% Binding retained on T-cells, 60° C. [2]: 0.906 fraction
% Binding retained on T-cells, 65° C. [2]: 0.0805 fraction
% Binding retained on T-cells, RT [2]: 1 fraction

B14: CD3B2062 (scFv)
scFv: B1 scFv with M48I, N61A, Q182T, A183S, W187L
% Retained 55° C. [1]: 110%
% Retained 60° C. [1]: 102%
% Retained 65° C. [1]: 14%

B16: CD3B2039 (scFv)
scFv: B1 scFv with N61A, A183S
% Retained 55° C. [1]: 111%
% Retained 60° C. [1]: 103%
% Retained 65° C. [1]: 44%
% Binding retained on T-cells, 55° C. [2]: 1.3 fraction
% Binding retained on T-cells, 60° C. [2]: 1 fraction
% Binding retained on T-cells, 65° C. [2]: 0.609 fraction
% Binding retained on T-cells, RT [2]: 1 fraction

B17: CD3B2041 (scFv)
scFv: B1 scFv with K38R, M48I, Q182T
% Retained 55° C. [1]: 104%
% Retained 60° C. [1]: 97%
% Retained 65° C. [1]: 16%
% Binding retained on T-cells, 55° C. [2]: 1.06 fraction
% Binding retained on T-cells, 60° C. [2]: 1.11 fraction
% Binding retained on T-cells, 65° C. [2]: 0.447 fraction
% Binding retained on T-cells, RT [2]: 1 fraction

B21: CD3B2058 (scFv)
scFv: B1 scFv with M48I, N61A, Q182T, A183S
% Retained 55° C. [1]: 112%
% Retained 60° C. [1]: 110%
% Retained 65° C. [1]: 20%
% Binding retained on T-cells, 55° C. [2]: 1.05 fraction
% Binding retained on T-cells, 60° C. [2]: 0.808 fraction
% Binding retained on T-cells, 65° C. [2]: 0.174 fraction
% Binding retained on T-cells, RT [2]: 1 fraction

B22: CD3B2070 (scFv)
scFv: B1 scFv with K38R, Q182T, A183S, W187L
% Retained 55° C. [1]: 107%
% Retained 60° C. [1]: 82%
% Retained 65° C. [1]: 6%

B24: CD3B2038 (scFv)
scFv: B1 scFv with N61A, Q182T, W187L
% Retained 55° C. [1]: 105%
% Retained 60° C. [1]: 98%
% Retained 65° C. [1]: 22%
% Binding retained on T-cells, 55° C. [2]: 1.03 fraction
% Binding retained on T-cells, 60° C. [2]: 1.1 fraction
% Binding retained on T-cells, 65° C. [2]: 0.279 fraction
% Binding retained on T-cells, RT [2]: 1 fraction

B26: CD3B2067 (scFv)
scFv: B1 scFv with K38R, A183S, W187L
% Retained 55° C. [1]: 98%
% Retained 60° C. [1]: 63%
% Retained 65° C. [1]: 5%

The remaining lines, values ahead:

% Retained 55° C. [1]: 108%
% Retained 60° C. [1]: 104%
% Retained 65° C. [1]: 36%
% Binding retained on T-cells, 55° C. [2]: 1.12 fraction
% Binding retained on T-cells, 60° C. [2]: 1.2 fraction
% Binding retained on T-cells, 65° C. [2]: 0.543 fraction
% Binding retained on T-cells, RT [2]: 1 fraction
B2: CD3B2031 (scFv)
scFv: B1 scFv with Q182T

% Retained 55° C. [1]: 100%
% Retained 60° C. [1]: 97%
% Retained 65° C. [1]: 29%
% Binding retained on T-cells, 55° C. [2]: 1.06 fraction
% Binding retained on T-cells, 60° C. [2]: 1.08 fraction
% Binding retained on T-cells, 65° C. [2]: 0.329 fraction
% Binding retained on T-cells, RT [2]: 1 fraction
B6: CD3B2029 (scFv)
scFv: B1 scFv with M48I, A183S

% Retained 55° C. [1]: 109%
% Retained 60° C. [1]: 109%
% Retained 65° C. [1]: 11%
B7: CD3B2066 (scFv)
scFv: B1 scFv with K38R, Q182T, A183S

% Retained 55° C. [1]: 104%
% Retained 60° C. [1]: 101%
% Retained 65° C. [1]: 6%
B8: CD3B2074 (scFv)
scFv: B1 scFv with K38R, M48I, N61A, Q182T, A183S

% Retained 55° C. [1]: 107%
% Retained 60° C. [1]: 100%
% Retained 65° C. [1]: 21%
B11: CD3B2060 (scFv)
scFv: B1 scFv with M48I, N61A, W187L

% Retained 55° C. [1]: 108%
% Retained 60° C. [1]: 91%
% Retained 65° C. [1]: 9%
B12: CD3B2084 (scFv)
scFv: B1 scFv with K38R, N61A, W187L

% Retained 55° C. [1]: 103%
% Retained 60° C. [1]: 88%
% Retained 65° C. [1]: 10%
B15: CD3B2068 (scFv)
scFv: B1 scFv with K38R, W187L

% Retained 55° C. [1]: 111%
% Retained 60° C. [1]: 105%
% Retained 65° C. [1]: 28%
% Binding retained on T-cells, 55° C. [2]: 1.05 fraction
% Binding retained on T-cells, 60° C. [2]: 0.997 fraction
% Binding retained on T-cells, 65° C. [2]: 0.296 fraction
% Binding retained on T-cells, RT [2]: 1 fraction
B18: CD3B2045 (scFv)
scFv: B1 scFv with K38R, M48I

% Retained 55° C. [1]: 100%
% Retained 60° C. [1]: 84%
% Retained 65° C. [1]: 11%
% Binding retained on T-cells, 55° C. [2]: 1.07 fraction
% Binding retained on T-cells, 60° C. [2]: 1 fraction
% Binding retained on T-cells, 65° C. [2]: 0.295 fraction
% Binding retained on T-cells, RT [2]: 1 fraction
B19: CD3B2033 (scFv)
scFv: B1 scFv with Q182T, W187L

% Retained 55° C. [1]: 103%
% Retained 60° C. [1]: 103%
% Retained 65° C. [1]: 38%
% Binding retained on T-cells, 55° C. [2]: 0.866 fraction
% Binding retained on T-cells, 60° C. [2]: 0.784 fraction
% Binding retained on T-cells, 65° C. [2]: 0.387 fraction
% Binding retained on T-cells, RT [2]: 1 fraction
B20: CD3B2034 (scFv)
scFv: B1 scFv with A183S

% Retained 55° C. [1]: 103%
% Retained 60° C. [1]: 87%
% Retained 65° C. [1]: 6%
B23: CD3B2075 (scFv)
scFv: B1 scFv with K38R, M48I, N61A, A183S, W187L

% Retained 55° C. [1]: 96%
% Retained 60° C. [1]: 83%
% Retained 65° C. [1]: 2%
% Binding retained on T-cells, 55° C. [2]: 0.993 fraction
% Binding retained on T-cells, 60° C. [2]: 0.935 fraction
% Binding retained on T-cells, 65° C. [2]: 0.0842 fraction
% Binding retained on T-cells, RT [2]: 1 fraction
B25: CD3B2042 (scFv)
scFv: B1 scFv with K38R, M48I, Q182T, A183S, W187L
